Patent publication US20260125649A1, “MEDIUM COMPOSITION AND METHOD FOR CULTURING MESENCHYMAL STEM CELLS” (ACADEMIA SINICA, priority 2018, published 2026)
“Also recorded” adds a separate entry of the source.

Legend:
MSCs [1] = assay: Cell cycle progression by flow cytometry with PI staining; type: cell-based, human; details: EpEX, at 18 h; from 6.5% without EpEX
Procedure: Phospho-EGFR (Tyr845) was detected by Western blotting. […] After treatment, cell cycle progression was investigated by flow cytometry with PI staining. Fraction of cells in each phase (G1, S, G2/M) of the cell cycle was evaluated. Cells that expressed EGFR shRNA or shLuc were treated with EpEX for 18 h. After treatment, cell cycle progression was investigated by flow cytometry with PI staining. Fraction of cells in each phase (G1, S, G2/M) of the cell cycle was evaluated. […] The protein expression of cell cycle regulators (cyclin D1, cyclin D2, cyclin E1) and pluripotency factors (Oct4, Sox2, c-Myc, Lin28) was examined by Western blotting. MSCs expressing EGFR shRNA were stimulated by EpEX. After treatment, the protein expression of cell cycle regulators (cyclin D1, cyclin E1, CDK4 and CDK9) and pluripotency factors (Oct4, in Sox2, c-Myc, and Lin 28) was examined by Western blotting. […] After treatment, the gene expression of pluripotency factors (Oct4, Sox2, c-Myc, Lin28 and EpCAM) was examined by qPCR.
After treatment, the protein levels of total STAT3 and phospho-STAT3 (Tyr705) were examined by Western blotting. […] Cell cycle progression was investigated by flow cytometry with PI staining. Fraction of cells in each phase (G1, S, G2/M) of the cell cycle was evaluated. […] Fraction of cells in each phase (G1, S, G2/M) of the cell cycle was evaluated. […]

EGFR (Tyr845) = biological target: T1, EGFR (Tyr845) (Homo sapiens, UniProt P00533); assay: EGFR phosphorylation (antibody array, Western blotting); type: cell-based; details: MSCs treated with the substance (EpEX 3 μg/mL)
T1 construct: host or cells: human primary bone marrow mesenchymal stem cells (BMMSCs)
Procedure: The phosphorylation of EGFR (Tyr845) and STAT3 (Tyr705) were examined by Western blotting with specific antibodies.
Western blotting was performed as previously described (Takahashi et al., 2003). Cells were lysed in lysis buffer (150 mM NaCl, 50 mM Tris-HCl (pH 7.4), 1% Nonidet P-40), containing a protease inhibitor mix (Roche Applied Science). Nuclear fractions and cytoplasmic fractions were separated by the Nuclear/Cytosol Fractionation Kit according to the manufacturer's instructions (BioVision Inc., Milpitas, CA, USA). Protein samples were separated by SDS-PAGE under denaturing conditions, and transferred to a PVDF membrane (Millipore). To probe for pluripotency markers, membranes were incubated with the indicated antibodies against Oct4 (1:1000, Abcam, Cambridge, UK), Nanog (1:1000, Genetex), Lin28 (1:1000, Genetex) or Sox2 (1:1000, Genetex). The CDK and cyclin antibodies were from the CDK and Cyclin Antibody Sampler Kits (Cell Signalling Technology, #9868 and #9869 respectively), including antibodies against cylin D1, D2, E1, and CDK4, CDK9 (1:1000). […]

let-7 = let-7 expression by qPCR; type: cell-based, human; details: EpEX 3 μg/mL
From the text: The expression of let-7 was detected by qPCR. MSCs expressing EGFR shRNA, STAT3 shRNA or Lin28b shRNA were stimulated with EpEX. The expression of let-7 was detected by qPCR. […] Expression of pluripotency factors (Oct4, Sox2, c-Myc and Lin28) was examined by qPCR. MSCs were transfected with a let-7 mimetic, and then stimulated with EpEX. Protein levels of pluripotency factors (Oct4, Sox2, c-Myc, and Lin28) were examined by Western blotting.
Total RNA was extracted using TRI reagent (Invitrogen, CA, USA), and 5 μg of total RNA was reverse transcribed using oligo (dT) primer (Fermentas, Glen Burnie, MD, USA) with SuperScript III reverse transcriptase (Invitrogen). Quantitative real time RT-PCR (qPCR) was performed on cDNA using the Light Cycler 480 SYBR Green I Master kit (Roche Applied Science, Indianapolis, IN) and the LightCycler480 System (Roche Applied Science). The gene expression levels of each sample were normalized to the expression levels of glyceraldehyde 3-phosphate dehydrogenase (GAPDH).

MSCs [2] = assay: Osteogenesis of MSCs by Alizarin Red S staining; type: cell-based, human
Procedure: Calcium precipitation was measured by Alizarin Red S (ARS) staining to probe the efficiency of osteogenesis. […] Quantification of osteogenesis, as measured by ARS staining, is shown for each group. MSCs were induced by osteogenetic medium and treated with EpEX at indicated doses. The gene expression of RUNX2 was examined by qPCR. […] ARS staining was performed to check the efficiency of osteogenesis. MSCs were pretreated with let-7 inhibitor and then treated with EpEX for 14 days during osteo-induction. ARS staining was performed to check the efficiency of osteogenesis. […] RUNX2 gene expression was measured by qPCR. MSCs were pretreated with let-7 inhibitor and induced by EpEX. RUNX2 gene expression was examined by qPCR. […] Upon EpEX stimulation, phosphorylation of EGFR-STAT3 signaling is induced and subsequently upregulates the level of Lin28 which inhibits let-7. When let-7 is inhibited, the transcription factor, HMGA2, is increased and binds to the promoters of Oct4 and Sox2. The EpEX-mediated increases of Oct4 and Sox2 can promote osteogenesis of MSCs during osteo-induction. […]
After 14 days of osteogenic differentiation, cells were fixed with ice-cold 70% ethanol at −20° C. for 1 h and then washed with PBS. […] For quantification, the cells were incubated with 1 mL of […] buffer for 1 h to extract ARS, and the O.D. at 550 nm was recorded.

B1: EpEX: extracellular domain of human EpCAM, 265 amino acids in length (SEQ ID NO: 2) (protein, listed as Homo sapiens)
chain: MAPPQVLAFGLLLAAATATFAAAQEECVCENYKLAVNCFVNNNRQCQCTSVGAQNTVICSKLAAKCLVMKAEMNGSKLGRRAKPEGALQNNDGLYDPDCDESGLFKAKQCNGTSMCWCVNTAGVRRTDKDTEITCSERVRTYWIIIELKHKAREKPYDSKSLRTALQKEITTRYQLDPKFITSILYENNVITIDLVQNSSQKTQNDVDIADVAYYFEKDVKGESLFHSKKMDLTVNGEQLDLDPGQTLIYYVDEKAPEFSMQGLK
For B1, the “percentage of cells in G2/M phase” value (MSCs [1]) was 29.3%, the “phosphorylation of EGFR at Tyr845” value (EGFR (Tyr845)) was “induced EGFR phosphorylation at Tyr845 in a time-dependent manner; also recorded: can induce” and the “level of let-7” value (let-7) was “decreased”. The “osteogenesis compared to controls” value (MSCs [2]; EpEX treatment during osteo-induction, 14 days, ARS staining) was 4 fold and the “calcium precipitation (ARS staining)” value (MSCs [2]; EpEX, Day 14, vs non-treated controls) was “higher”.
